# Experiments:
# [1] = system: peripheral blood mononuclear cells (PBMCs); assay: Limiting dilution competitive transplants and secondary transplants of mobilized grafts; type: in vivo; details: secondarily transplanted mice; n=16 mice/group, P<0.01
# CD34+ cells = details: cited from earlier work
molecule,measurement,setting,value
"G-CSF: hematopoietic growth factor used clinically to mobilize HSC and HPC; comparator regimen (protein, UniProt P09919 31-207, looked up) Granulocyte …: TPLGPASSLPQSFLLKCLEQVRKIQGDGAALQEKLVSECATYKLCHPEELVLLGHSLGIPWAPLSSCPSQALQLAGCLSQLHSGLFLYQGLLQALEGISPELGPTLDTLQLDVADFATTIWQQMEELGMAPALQPTQGAMPAFASAFQRRAGGVLVASHLQSFLEVSYRVLRHLAQP",competitiveness of graft as measured by contribution to chimerism,[1],remained static
same,patients that fail to mobilize an optimal CD34+ cell dose for autologous transplantation,CD34+ cells; autologous transplantation patients,Up to 60%
same,"poor mobilization in response to G-CSF, share of normal, healthy donors","CD34+ cells; normal, healthy donors",15%

# — patent US20190060366A1, “HIGHLY ENGRAFTABLE HEMATOPOIETIC STEM CELLS” (President and Fellows of Harvard College, priority 2016, published 2019)
